Here are results for 1 substance from paper PMC12663545.

Assay [1] addresses Chloroflexus aurantiacus succinate dehydrogenase (CaSDH) monomer of SdhA, SdhB and SdhC (Chloroflexus aurantiacus J-10-fl (endogenous)). Nature of the assay: native gel or EMSA. In general terms: A gel shift assay detects complexes by their altered migration in electrophoresis.
Assay [2] shares this target. Put plainly: cryo-EM structure.

Take “Chloroflexus aurantiacus succinate dehydrogenase (CaSDH) monomer of SdhA, SdhB and SdhC (complex)”: the stoichiometry N in assay [1] and in assay [2] was 3 in each case.

Usually stoichiometry N stands for the number of molecules, sites or subunits per partner or assembly.
